Measured values: paper PMC8092277, “Cytoplasmic CPSF6 Regulates HIV-1 Capsid Trafficking and Infection in a Cyclophilin A-Dependent Manner” (mBio, 2021)

Molecular target: the molecule itself
Experiment: negative-stain TEM; MBP-CPSF6 P1 or P2 alone, incubated in CA assembly buffer

B1: MBP-His6-CPSF6-588 (natural protein, UniProt Q16630-2 1-588, looked up)
chain: MADGVDHIDIYADVGEEFNQEAEYGGHDQIDLYDDVISPSANNGDAPEDRDYMDTLPPTVGDDVGKGAAPNVVYTYTGKRIALYIGNLTWWTTDEDLTEAVHSLGVNDILEIKFFENRANGQSKGFALVGVGSEASSKKLMDLLPKRELHGQNPVVTPCNKQFLSQFEMQSRKTTQSGQMSGEGKAGPPGGSSRAAFPQGGRGRGRFPGAVPGGDRFPGPAGPGGPPPPFPGNLIKHLVKGTRPLFLETRIPWHMGHSIEEIPIFGLKAGQTPPRPPLGPPGPPGPPGPPPPGQVLPPPLAGPPNRGDRPPPPVLFPGQPFGQPPLGPLPPGPPPPVPGYGPPPGPPPPQQGPPPPPGPFPPRPPGPLGPPLTLAPPPHLPGPPPGAPPPAPHVNPAFFPPPTNSGMPTSDSRGPPPTDPYGRPPPYDRGDYGPPGREMDTARTPLSEAEFEEIMNRNRAISSSAISRAVSDASAGDYGSAIETLVTAISLIKQSKVSADDRCKVLISSLQDCLHGIESKSYGSGSRRERSRERDHSRSREKSRRHKSRSRDRHDDYYRERSRERERHRDRDRDRDRERDREREYRHR
notes: cleavage and polyadenylation specificity factor 6 (CPSF6), the isoform of 588 residues, full length; Order: MBP, His6, CPSF6; An HRV-3C site allows removal of MBP, but the cleaved protein precipitated, so the tagged protein was used; Size exclusion gave two peaks of the same construct, P1 and P2, which are kept here as one molecule; also called MBP-CPSF6; full-length CPSF6; source: Expi 293F …
Does B1 bind?
Result: binds
